# Laboratory results as given in patent US20250215103A1 (Hoffmann-La Roche, published 2025).
# Key:
# Test in all cases: cell-based or functional assay
# [1] = target: T1, human PD1 on cells (Jurkat cells expressing human PD1; activated human T cells) (human, UniProt Q15116 25-288)
# [2] = target: T1, human PD1 on cells (Jurkat cells …); remark: listed apart in the source
# [3] = target: T1, human PD1 on cells (Jurkat cells …); remark: listed apart in the source
# T1 sequence (Q15116 25-288 limits assumed): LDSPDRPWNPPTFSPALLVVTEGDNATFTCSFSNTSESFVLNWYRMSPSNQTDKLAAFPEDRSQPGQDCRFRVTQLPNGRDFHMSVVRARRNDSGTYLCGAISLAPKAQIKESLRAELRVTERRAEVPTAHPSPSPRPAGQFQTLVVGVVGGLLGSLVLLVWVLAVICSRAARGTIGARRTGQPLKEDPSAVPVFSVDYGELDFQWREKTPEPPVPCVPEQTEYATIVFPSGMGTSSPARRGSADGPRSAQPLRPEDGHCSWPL
"EC50 (pM) of Granzyme B production, mMLR [1] [pM]","Fold activity vs. control (EC50 of Granzyme B, mMLR), control 8014 [2] [fold vs 8014]","Fold activity vs. control (EC50 of Granzyme B, mMLR), control PD1-0103-312 [3] [fold vs PD1-0103-312]",Binder
110,–,–,"PD1-0103-0312 (antibody, V domains shown) VH: EVQLLESGGGLVQPGGSLRLSCAASGFSFSSYTMSWVRQAPGKGLEWVATISGGGRDIYYPDSVKGRFTISRDNSKNTLYLQMNSLRAEDTAVYYCVLLTGRVYFALDSWGQGTLVTVSS VL: DIVMTQSPDSLAVSLGERATINCKASESVDTSDNSFIHWYQQKPGQSPKLLIYRSSTLESGVPDRFSGSGSGTDFTLTISSLQAEDVAVYYCQQNYDVPWTFGQGTKVEIK"
34,1560,3.82,"bispecific CrossMab 8012 (PD1-0103-0312/51A165) (bispecific antibody, human IgG1, kappa, L234A L235A) heavy 1: EVQLQQSGPELVKPGASVKMSCKASGYTFTSYVMHWVKQKPGQGLEWIGYVNPYNDDTKYNEKFRGKATLTSDKSSSTAYMELSSLTSEDSAVYYCARSYYYYSMDNWGQGTSVTVSSASTKGPSVFPLAPSSKSTSGGTAALGCLVEDYFPEPVTVSWNSGALTSGVHTFPAVLQSSGLYSLSSVVTVPSSSLGTQTYICNVNHKPSNTKVDEKVEPKSCDKTHTCPPCPAPEAAGGPSVFLFPPKPKDTLMISRTPEVTCVVVDVSHEDPEVKFNWYVDGVEVHNAKTKPREEQYNSTYRVVSVLTVLHQDWLNGKEYKCKVSNKALGAPIEKTISKAKGQPREPQVCTLPPSRDELTKNQVSLSCAVKGFYPSDIAVEWESNGQPENNYKTTPPVLDSDGSFFLVSKLTVDKSRWQQGNVFSCSVMHEALHNHYTQKSLSLSP light 1: QIVLTQSPAIMSASPGEKVTVTCSASSSIRYMHWYQQKPGTSPKRWIYDTSELASGVPARFSGSGSGTSYSLTINSMEAEDAATYYCHQRSSYPFTFGGGTKLEIKRTVAAPSVFIFPPSDRKLKSGTASVVCLLNNFYPREAKVQWKVDNALQSGNSQESVTEQDSKDSTYSLSSTLTLSKADYEKHKVYACEVTHQGLSSPVTKSFNRGEC heavy 2: not shown light 2: EVQLLESGGGLVQPGGSLRLSCAASGFSFSSYTMSWVRQAPGKGLEWVATISGGGRDIYYPDSVKGRFTISRDNSKNTLYLQMNSLRAEDTAVYYCVLLTGRVYFALDSWGQGTLVTVSSASVAAPSVFIFPPSDEQLKSGTASVVCLLNNFYPREAKVQWKVDNALQSGNSQESVTEQDSKDSTYSLSSTLTLSKADYEKHKVYACEVTHQGLSSPVTKSFNRGEC"
13100,–,–,"control CrossMab 8014 (PD1-0103-0312/Nada) (bispecific antibody, human IgG1, kappa, L234A L235A) heavy 1: EVQLVESGGGLVQPGGSLRLSCAASGFSIAGTAIHWVRQAPGKGLEWVASISPGGGSTAYADSVKGRFTISADTSKNTAYLQMNSLRAEDTAVYYCSRSGGSGASAMDYWGQGTLVTVSSASTKGPSVFPLAPSSKSTSGGTAALGCLVEDYFPEPVTVSWNSGALTSGVHTFPAVLQSSGLYSLSSVVTVPSSSLGTQTYICNVNHKPSNTKVDEKVEPKSCDKTHTCPPCPAPEAAGGPSVFLFPPKPKDTLMISRTPEVTCVVVDVSHEDPEVKFNWYVDGVEVHNAKTKPREEQYNSTYRVVSVLTVLHQDWLNGKEYKCKVSNKALGAPIEKTISKAKGQPREPQVCTLPPSRDELTKNQVSLSCAVKGFYPSDIAVEWESNGQPENNYKTTPPVLDSDGSFFLVSKLTVDKSRWQQGNVFSCSVMHEALHNHYTQKSLSLSP light 1: DIQMTQSPSSLSASVGDRVTITCRASQDVGSGVAWYQQKPGKAPKLLIGSASGLYSGVPSRFSGSRSGTDFTLTISSLQPEDFATYYCQQSASGGSTFGQGTKVEIKRTVAAPSVFIFPPSDRKLKSGTASVVCLLNNFYPREAKVQWKVDNALQSGNSQESVTEQDSKDSTYSLSSTLTLSKADYEKHKVYACEVTHQGLSSPVTKSFNRGEC heavy 2: not shown light 2: EVQLLESGGGLVQPGGSLRLSCAASGFSFSSYTMSWVRQAPGKGLEWVATISGGGRDIYYPDSVKGRFTISRDNSKNTLYLQMNSLRAEDTAVYYCVLLTGRVYFALDSWGQGTLVTVSSASVAAPSVFIFPPSDEQLKSGTASVVCLLNNFYPREAKVQWKVDNALQSGNSQESVTEQDSKDSTYSLSSTLTLSKADYEKHKVYACEVTHQGLSSPVTKSFNRGEC"
388,191,0.47,"bispecific CrossMab 8013 (PD1-0103-0312/1026) (bispecific antibody, human IgG1, kappa, L234A L235A) heavy 1: QSMQESGPGLVKPSQTLSLTCTVSGFSLSSYAMSWIRQHPGKGLEWIGYIWSGGSTDYASWAKSRVTISKTSTTVSLKLSSVTAADTAVYYCARRYGTSYPDYGDASGFDPWGQGTLVTVSSASTKGPSVFPLAPSSKSTSGGTAALGCLVEDYFPEPVTVSWNSGALTSGVHTFPAVLQSSGLYSLSSVVTVPSSSLGTQTYICNVNHKPSNTKVDEKVEPKSCDKTHTCPPCPAPEAAGGPSVFLFPPKPKDTLMISRTPEVTCVVVDVSHEDPEVKFNWYVDGVEVHNAKTKPREEQYNSTYRVVSVLTVLHQDWLNGKEYKCKVSNKALGAPIEKTISKAKGQPREPQVCTLPPSRDELTKNQVSLSCAVKGFYPSDIAVEWESNGQPENNYKTTPPVLDSDGSFFLVSKLTVDKSRWQQGNVFSCSVMHEALHNHYTQKSLSLSP light 1: AIQLTQSPSSLSASVGDRVTITCRASQSISSYLAWYQQKPGKAPKLLIYRASTLASGVPSRFSGSGSGTDFTLTISSLQPEDFATYYCQQNYASSNVDNTFGGGTKVEIKRTVAAPSVFIFPPSDRKLKSGTASVVCLLNNFYPREAKVQWKVDNALQSGNSQESVTEQDSKDSTYSLSSTLTLSKADYEKHKVYACEVTHQGLSSPVTKSFNRGEC heavy 2: not shown light 2: EVQLLESGGGLVQPGGSLRLSCAASGFSFSSYTMSWVRQAPGKGLEWVATISGGGRDIYYPDSVKGRFTISRDNSKNTLYLQMNSLRAEDTAVYYCVLLTGRVYFALDSWGQGTLVTVSSASVAAPSVFIFPPSDEQLKSGTASVVCLLNNFYPREAKVQWKVDNALQSGNSQESVTEQDSKDSTYSLSSTLTLSKADYEKHKVYACEVTHQGLSSPVTKSFNRGEC"
117,–,–,"control 2+1 CrossMab 8159 (PD1-0103-0312/Nada TCB-format) (bispecific antibody, human IgG1, kappa, L234A L235A) light 1: EVQLLESGGGLVQPGGSLRLSCAASGFSFSSYTMSWVRQAPGKGLEWVATISGGGRDIYYPDSVKGRFTISRDNSKNTLYLQMNSLRAEDTAVYYCVLLTGRVYFALDSWGQGTLVTVSSASVAAPSVFIFPPSDEQLKSGTASVVCLLNNFYPREAKVQWKVDNALQSGNSQESVTEQDSKDSTYSLSSTLTLSKADYEKHKVYACEVTHQGLSSPVTKSFNRGEC light 2: DIQMTQSPSSLSASVGDRVTITCRASQDVGSGVAWYQQKPGKAPKLLIGSASGLYSGVPSRFSGSRSGTDFTLTISSLQPEDFATYYCQQSASGGSTFGQGTKVEIKRTVAAPSVFIFPPSDRKLKSGTASVVCLLNNFYPREAKVQWKVDNALQSGNSQESVTEQDSKDSTYSLSSTLTLSKADYEKHKVYACEVTHQGLSSPVTKSFNRGEC heavy 1: DIVMTQSPDSLAVSLGERATINCKASESVDTSDNSFIHWYQQKPGQSPKLLIYRSSTLESGVPDRFSGSGSGTDFTLTISSLQAEDVAVYYCQQNYDVPWTFGQGTKVEIKSSASTKGPSVFPLAPSSKSTSGGTAALGCLVKDYFPEPVTVSWNSGALTSGVHTFPAVLQSSGLYSLSSVVTVPSSSLGTQTYICNVNHKPSNTKVDKKVEPKSCDGGGGSGGGGSEVQLVESGGGLVQPGGSLRLSCAASGFSIAGTAIHWVRQAPGKGLEWVASISPGGGSTAYADSVKGRFTISADTSKNTAYLQMNSLRAEDTAVYYCSRSGGSGASAMDYWGQGTLVTVSSASTKGPSVFPLAPSSKSTSGGTAALGCLVEDYFPEPVTVSWNSGALTSGVHTFPAVLQSSGLYSLSSVVTVPSSSLGTQTYICNVNHKPSNTKVDEKVEPKSCDKTHTCPPCPAPEAAGGPSVFLFPPKPKDTLMISRTPEVTCVVVDVSHEDPEVKFNWYVDGVEVHNAKTKPREEQYNSTYRVVSVLTVLHQDWLNGKEYKCKVSNKALGAPIEKTISKAKGQPREPQVCTLPPSRDELTKNQVSLSCAVKGFYPSDIAVEWESNGQPENNYKTTPPVLDSDGSFFLVSKLTVDKSRWQQGNVFSCSVMHEALHNHYTQKSLSLSP heavy 2: not shown"
111,–,–,"control 2+1 CrossMab 8158 (PD1-0103-0312/Nada BBB-format) (bispecific antibody, human IgG1, kappa, L234A L235A) light 1: EVQLLESGGGLVQPGGSLRLSCAASGFSFSSYTMSWVRQAPGKGLEWVATISGGGRDIYYPDSVKGRFTISRDNSKNTLYLQMNSLRAEDTAVYYCVLLTGRVYFALDSWGQGTLVTVSSASVAAPSVFIFPPSDEQLKSGTASVVCLLNNFYPREAKVQWKVDNALQSGNSQESVTEQDSKDSTYSLSSTLTLSKADYEKHKVYACEVTHQGLSSPVTKSFNRGEC light 2: DIQMTQSPSSLSASVGDRVTITCRASQDVGSGVAWYQQKPGKAPKLLIGSASGLYSGVPSRFSGSRSGTDFTLTISSLQPEDFATYYCQQSASGGSTFGQGTKVEIKRTVAAPSVFIFPPSDRKLKSGTASVVCLLNNFYPREAKVQWKVDNALQSGNSQESVTEQDSKDSTYSLSSTLTLSKADYEKHKVYACEVTHQGLSSPVTKSFNRGEC heavy 1: DIVMTQSPDSLAVSLGERATINCKASESVDTSDNSFIHWYQQKPGQSPKLLIYRSSTLESGVPDRFSGSGSGTDFTLTISSLQAEDVAVYYCQQNYDVPWTFGQGTKVEIKSSASTKGPSVFPLAPSSKSTSGGTAALGCLVKDYFPEPVTVSWNSGALTSGVHTFPAVLQSSGLYSLSSVVTVPSSSLGTQTYICNVNHKPSNTKVDKKVEPKSCDKTHTCPPCPAPEAAGGPSVFLFPPKPKDTLMISRTPEVTCVVVDVSHEDPEVKFNWYVDGVEVHNAKTKPREEQYNSTYRVVSVLTVLHQDWLNGKEYKCKVSNKALGAPIEKTISKAKGQPREPQVCTLPPSRDELTKNQVSLSCAVKGFYPSDIAVEWESNGQPENNYKTTPPVLDSDGSFFLVSKLTVDKSRWQQGNVFSCSVMHEALHNHYTQKSLSLSPGKGGGGSGGGGSEVQLVESGGGLVQPGGSLRLSCAASGFSIAGTAIHWVRQAPGKGLEWVASISPGGGSTAYADSVKGRFTISADTSKNTAYLQMNSLRAEDTAVYYCSRSGGSGASAMDYWGQGTLVTVSSASTKGPSVFPLAPSSKSTSGGTAALGCLVEDYFPEPVTVSWNSGALTSGVHTFPAVLQSSGLYSLSSVVTVPSSSLGTQTYICNVNHKPSNTKVDEKVEPKSCD heavy 2: not shown"
